Measured values published in paper doi:10.1101/2024.10.18.618978v3.

Test system: NCCCNCCCCNCCCN
Assay: colorimetric DTNB SSAT assay
Format: biochemical, Homo sapiens
Settings: 0.25 mM AcCoA, pH 7.5, 37 °C

SAT1 (Homo sapiens) was tested. Which Km did it give?
The Km was 73.10 ± 8.328 µM.
